We go through 20 molecules from paper PMC8733265, “Microscale thermophoresis suggests a new model of regulation of cardiac myosin function via interaction with cardiac myosin-binding protein C” (The Journal of Biological Chemistry, 2021).

First the molecules themselves.
B1: recombinant human cardiac myosin tail domain, first 126 amino acids of myosin subfragment-2 (myosin S2Δ) (domain or fragment, UniProt P12883 838-963, looked up)
chain: PLLKSAEREKEMASMKEEFTRLKEALEKSEARRKELEEKMVSLLQEKNDLQLQVQAEQDNLADAEERCDQLIKNKIQLEAKVKEMNERLEDEEEMNAELTAKKRKLEDECSELKRDIDDLELTLAK
modifications: Alexa 647-NHS label where it was the labelled partner; unlabelled where it was titrated
notes: human cardiac (β) myosin heavy chain, first 126 amino acids of subfragment-2; also called myosin tails; source: E. coli BL21(DE3)-RIPL, purified (HisTrapFF, TEV, ion exchange); not shown: His tag, N-terminal, cleaved

Experiment [1] deals with bovine β-cardiac myosin S1 (bovine) (UniProt Q9BE39). The experiment in a line: MST; Monolith NT.115; 100 nmol/l Alexa647-labelled protein fixed, partner titrated; 20 mmol/l Mops pH 7, 1 mmol/l MgCl2, 50 mmol/l KCl, 1 mmol/l DTT, 0.05% Tween-20.
bovine β-cardiac myosin S1 (bovine), sequence (Q9BE39 whole entry, chain 1 of 2, the tested form may be a part): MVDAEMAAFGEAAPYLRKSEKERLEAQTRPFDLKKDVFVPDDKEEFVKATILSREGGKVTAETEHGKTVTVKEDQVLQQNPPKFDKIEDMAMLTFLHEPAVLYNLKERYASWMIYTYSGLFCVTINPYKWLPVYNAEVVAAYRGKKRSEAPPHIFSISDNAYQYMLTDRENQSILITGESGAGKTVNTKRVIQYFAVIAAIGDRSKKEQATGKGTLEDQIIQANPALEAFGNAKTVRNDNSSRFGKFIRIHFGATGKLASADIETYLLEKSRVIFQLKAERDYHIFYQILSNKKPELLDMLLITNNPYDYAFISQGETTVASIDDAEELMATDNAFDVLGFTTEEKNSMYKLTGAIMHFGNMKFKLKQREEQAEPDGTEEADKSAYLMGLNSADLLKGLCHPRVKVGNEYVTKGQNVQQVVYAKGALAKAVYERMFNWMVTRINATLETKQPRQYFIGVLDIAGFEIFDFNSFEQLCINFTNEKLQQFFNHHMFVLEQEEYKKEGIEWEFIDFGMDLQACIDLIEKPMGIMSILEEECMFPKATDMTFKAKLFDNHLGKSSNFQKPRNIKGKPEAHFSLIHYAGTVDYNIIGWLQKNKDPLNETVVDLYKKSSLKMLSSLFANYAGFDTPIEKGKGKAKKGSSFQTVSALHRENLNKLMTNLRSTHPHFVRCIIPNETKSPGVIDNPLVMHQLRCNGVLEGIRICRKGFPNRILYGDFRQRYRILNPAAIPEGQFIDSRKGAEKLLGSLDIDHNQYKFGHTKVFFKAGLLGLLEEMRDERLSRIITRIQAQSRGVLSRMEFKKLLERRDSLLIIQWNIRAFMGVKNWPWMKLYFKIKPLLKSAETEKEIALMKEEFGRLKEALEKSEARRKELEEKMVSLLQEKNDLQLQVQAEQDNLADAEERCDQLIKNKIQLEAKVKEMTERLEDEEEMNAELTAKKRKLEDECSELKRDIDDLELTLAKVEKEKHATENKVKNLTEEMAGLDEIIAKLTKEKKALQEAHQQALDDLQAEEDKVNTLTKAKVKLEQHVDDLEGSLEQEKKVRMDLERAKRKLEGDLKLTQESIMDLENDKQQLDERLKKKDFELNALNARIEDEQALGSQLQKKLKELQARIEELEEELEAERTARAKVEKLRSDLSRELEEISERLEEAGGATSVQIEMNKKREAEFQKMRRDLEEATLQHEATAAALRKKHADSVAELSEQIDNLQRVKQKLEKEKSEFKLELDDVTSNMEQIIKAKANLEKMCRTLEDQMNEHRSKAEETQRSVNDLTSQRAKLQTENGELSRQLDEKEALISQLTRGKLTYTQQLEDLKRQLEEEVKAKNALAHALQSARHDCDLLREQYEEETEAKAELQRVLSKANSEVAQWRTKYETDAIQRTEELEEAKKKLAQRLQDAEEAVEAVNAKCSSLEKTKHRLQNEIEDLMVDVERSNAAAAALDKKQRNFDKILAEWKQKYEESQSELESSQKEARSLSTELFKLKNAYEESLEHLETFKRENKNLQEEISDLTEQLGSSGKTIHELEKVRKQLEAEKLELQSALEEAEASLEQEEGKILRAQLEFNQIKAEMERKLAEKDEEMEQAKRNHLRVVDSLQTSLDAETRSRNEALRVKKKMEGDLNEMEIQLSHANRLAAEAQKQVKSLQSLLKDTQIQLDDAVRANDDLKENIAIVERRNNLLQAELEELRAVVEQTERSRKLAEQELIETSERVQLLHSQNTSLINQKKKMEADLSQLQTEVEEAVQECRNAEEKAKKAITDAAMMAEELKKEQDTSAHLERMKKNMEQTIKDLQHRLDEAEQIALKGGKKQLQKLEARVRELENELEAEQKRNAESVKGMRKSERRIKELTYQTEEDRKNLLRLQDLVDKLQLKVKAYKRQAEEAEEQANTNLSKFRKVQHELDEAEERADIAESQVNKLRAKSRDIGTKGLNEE
bovine β-cardiac myosin S1 (bovine), sequence (P85100 whole entry, chain 2 of 2, further chain, the tested form may be a part): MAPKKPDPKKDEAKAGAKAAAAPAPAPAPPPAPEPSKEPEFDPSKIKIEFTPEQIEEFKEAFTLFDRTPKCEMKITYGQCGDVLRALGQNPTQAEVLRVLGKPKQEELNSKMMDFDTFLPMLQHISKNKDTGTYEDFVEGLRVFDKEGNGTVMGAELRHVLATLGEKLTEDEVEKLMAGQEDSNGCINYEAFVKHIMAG
Experiment [2] has as its target recombinant human cardiac myosin tail domain, first 126 amino acids of myosin subfragment-2 (myosin S2Δ) (human) (UniProt P12883). Described as above.
Experiment [3] concerns the target human cardiac myosin tail domain (myosin S2Δ; also the heavy-chain part of miniHMM) miniHMM heavy-chain part containing myosin S2Δ (UniProt P12883). The experiment in a line: microscale thermophoresis titration. The conditions noted are these: reference: unphosphorylated C0C2. (In general: Microscale thermophoresis detects binding through changes in fluorescence in a small temperature gradient.)

Experiment [4] has as its target bovine β-cardiac myosin S1 myosin S1 (head domain) (UniProt Q9BE39). The experiment in a line: microscale thermophoresis titration. The conditions noted are these: reference: unphosphorylated C0C2.
In experiment [5] the target is human cardiac myosin tail domain (myosin S2Δ; also the heavy-chain part of miniHMM) miniHMM heavy-chain part containing myosin S2Δ (UniProt P12883). The experiment in a line: microscale thermophoresis titration. The conditions noted are these: reference: unphosphorylated C0C2. The source holds these as a separate data set.
Experiment [6] concerns the target bovine β-cardiac myosin S1 (bovine) (UniProt Q9BE39). The experiment in a line: MST; competition: C5C7 titrated into a mixture of Alexa647-labelled myosin S1 and C2C4.
The target of experiment [7] is cMyBP-C (cardiac myosin-binding protein C) C0C2 (C0-P/A-C1-m-C2) (UniProt Q14896). The experiment in a line: microscale thermophoresis titration. Conditions: reference: unphosphorylated miniHMM.
The target is the same in experiment [8]. The experiment in a line: microscale thermophoresis titration. Conditions: reference: unphosphorylated miniHMM. This is another data set of the same source.
Another experiment concerns the target T1, C0C1 fragment of cMyBP-C (UniProt Q14896 1-258).
T1 construct: also called C0-P/A-C1; source: E. coli BL21(DE3)-RIPL, purified (HisTrapFF, TEV, ion exchange); not shown: His tag, N-terminal, cleaved
The experiment in a line: MST; Monolith NT.115; 100 nmol/l Alexa647-labelled protein fixed, partner titrated; 20 mmol/l Mops pH 7, 1 mmol/l MgCl2, 50 mmol/l KCl, 1 mmol/l DTT, 0.05% Tween-20. Conditions: both partners purified.

In a further experiment the target is T2, C5C7 segment of cMyBP-C (UniProt Q14896 645-967).
T2 construct: also called C5–C6–C7; wildtype C5C7; source: E. coli BL21(DE3)-RIPL, purified (HisTrapFF, TEV, ion exchange); not shown: His tag, N-terminal, cleaved
T2 sequence (looked up): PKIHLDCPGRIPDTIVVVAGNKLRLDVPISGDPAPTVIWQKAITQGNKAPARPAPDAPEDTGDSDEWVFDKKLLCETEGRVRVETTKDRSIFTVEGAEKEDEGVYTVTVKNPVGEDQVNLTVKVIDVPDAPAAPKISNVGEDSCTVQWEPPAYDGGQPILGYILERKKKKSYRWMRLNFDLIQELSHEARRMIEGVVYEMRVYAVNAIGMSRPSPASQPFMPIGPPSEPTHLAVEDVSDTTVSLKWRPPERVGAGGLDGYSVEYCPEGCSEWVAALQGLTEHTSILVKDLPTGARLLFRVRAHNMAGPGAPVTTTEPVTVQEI
The description is as above. The conditions noted are these: both partners purified.

Experiment [9] concerns the target T3, bovine β-cardiac myosin S1 (bovine, UniProt Q9BE39 1-1935; P85100 1-199; Q3SZE5 1-166, Alexa 647-NHS label (chain and site not stated)).
T3 construct: β-cardiac myosin heavy chain (MHC), bovine, the part that lies in subfragment 1; essential light chain (ELC) of bovine cardiac myosin, labelled on the gel of isolated S1; regulatory light chain (RLC) of bovine cardiac myosin, labelled on the gel of isolated S1; the text says that an intact RLC neck region is not present in this S1; Used at 100 nmol/l as the Alexa647-labelled partner in MST; also …
The description is as above.

Experiment [10] concerns the target miniHMM, recombinant fragment of human cardiac myosin containing the myosin S2Δ tail domain bound to two RLCs (human), P12883. Description: MST; as the other MST titrations but pH adjusted to 6.2 for the isolated m-motif; 100 nmol/l Alexa647-labelled protein fixed.
Experiment [11] concerns the target T3, bovine β-cardiac myosin S1. The description is as above. Conditions: both partners purified.
For experiment [12], the target named is B1. The description is as above. The conditions noted are these: both partners purified.

T3 sequence (Q9BE39 whole entry, chain 1 of 2, the tested form may be a part): as the sequence (Q9BE39 whole entry, chain 1 of 2, the tested form may be a part) above
T3 sequence (P85100 whole entry, chain 2 of 2, the tested form may be a part): as the sequence (P85100 whole entry, chain 2 of 2, further chain, the tested form may be a part) above
T1 sequence (Q14896 1-258): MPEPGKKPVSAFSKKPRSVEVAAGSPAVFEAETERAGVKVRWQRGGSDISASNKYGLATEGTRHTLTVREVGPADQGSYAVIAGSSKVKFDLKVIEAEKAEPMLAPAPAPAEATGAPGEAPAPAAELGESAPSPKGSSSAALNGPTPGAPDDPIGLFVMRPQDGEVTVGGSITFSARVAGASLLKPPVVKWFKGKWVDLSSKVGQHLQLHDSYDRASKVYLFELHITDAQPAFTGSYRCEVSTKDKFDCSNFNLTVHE
miniHMM, recombinant fragment of human cardiac myosin containing the myosin S2Δ tail domain bound to two RLCs (human), P12883, sequence (P12883 whole entry, stated change not applied, the tested form may be a part): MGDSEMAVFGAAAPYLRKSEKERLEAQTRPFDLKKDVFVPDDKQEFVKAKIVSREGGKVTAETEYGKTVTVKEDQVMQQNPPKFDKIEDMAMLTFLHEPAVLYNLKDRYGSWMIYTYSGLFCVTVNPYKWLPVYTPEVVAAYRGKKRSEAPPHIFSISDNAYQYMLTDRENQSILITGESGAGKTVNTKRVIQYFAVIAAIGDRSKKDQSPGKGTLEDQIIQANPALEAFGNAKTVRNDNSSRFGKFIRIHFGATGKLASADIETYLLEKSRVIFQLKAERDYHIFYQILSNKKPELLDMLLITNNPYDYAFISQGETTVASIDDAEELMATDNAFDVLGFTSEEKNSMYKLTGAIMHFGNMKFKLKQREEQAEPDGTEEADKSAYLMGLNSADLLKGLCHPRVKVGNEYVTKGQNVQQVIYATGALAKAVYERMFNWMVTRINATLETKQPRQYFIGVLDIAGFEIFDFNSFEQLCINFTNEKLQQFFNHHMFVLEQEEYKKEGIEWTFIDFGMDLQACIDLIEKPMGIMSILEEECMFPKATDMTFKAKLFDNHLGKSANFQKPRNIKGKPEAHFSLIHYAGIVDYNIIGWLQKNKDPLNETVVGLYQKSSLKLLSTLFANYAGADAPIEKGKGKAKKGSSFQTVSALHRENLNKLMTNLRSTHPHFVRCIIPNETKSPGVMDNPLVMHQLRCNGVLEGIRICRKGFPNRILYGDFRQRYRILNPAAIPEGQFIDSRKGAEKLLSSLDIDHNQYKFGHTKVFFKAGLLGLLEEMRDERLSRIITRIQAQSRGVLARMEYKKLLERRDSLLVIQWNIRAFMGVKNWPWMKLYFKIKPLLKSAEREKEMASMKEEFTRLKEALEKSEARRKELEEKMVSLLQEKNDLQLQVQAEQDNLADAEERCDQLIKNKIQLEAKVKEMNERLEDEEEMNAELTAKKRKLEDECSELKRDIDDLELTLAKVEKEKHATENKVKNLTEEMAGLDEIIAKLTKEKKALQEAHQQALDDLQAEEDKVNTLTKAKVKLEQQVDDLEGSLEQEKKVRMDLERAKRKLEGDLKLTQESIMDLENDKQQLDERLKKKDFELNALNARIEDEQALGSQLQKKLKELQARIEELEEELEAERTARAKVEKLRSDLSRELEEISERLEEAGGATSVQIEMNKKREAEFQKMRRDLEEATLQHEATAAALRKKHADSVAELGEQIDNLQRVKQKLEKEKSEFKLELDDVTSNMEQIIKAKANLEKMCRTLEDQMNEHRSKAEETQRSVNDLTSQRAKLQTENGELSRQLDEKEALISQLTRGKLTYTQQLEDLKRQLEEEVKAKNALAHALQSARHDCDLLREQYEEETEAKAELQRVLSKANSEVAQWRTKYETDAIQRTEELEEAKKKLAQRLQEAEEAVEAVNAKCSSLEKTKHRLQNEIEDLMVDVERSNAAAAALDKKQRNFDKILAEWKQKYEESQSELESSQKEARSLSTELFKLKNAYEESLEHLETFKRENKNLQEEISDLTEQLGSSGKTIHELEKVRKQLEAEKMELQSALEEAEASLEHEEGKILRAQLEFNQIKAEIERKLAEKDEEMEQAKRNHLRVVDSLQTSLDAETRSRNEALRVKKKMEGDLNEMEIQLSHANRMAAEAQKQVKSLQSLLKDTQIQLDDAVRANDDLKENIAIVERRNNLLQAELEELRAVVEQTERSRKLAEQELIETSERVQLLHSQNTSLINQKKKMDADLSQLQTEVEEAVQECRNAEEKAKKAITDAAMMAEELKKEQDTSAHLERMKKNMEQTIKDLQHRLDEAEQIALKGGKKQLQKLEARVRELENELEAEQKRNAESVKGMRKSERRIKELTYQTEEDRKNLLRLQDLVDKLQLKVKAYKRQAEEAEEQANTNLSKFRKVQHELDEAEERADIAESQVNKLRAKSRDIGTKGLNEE

Consider “C0C2-truncated cMyBP-C (ΔC0C2-cMyBP-C) (from UniProt Q14896 453-1274) (domain or fragment)”, for which the Kd (commonly the free concentration of one partner at which half of the binding sites on the other are occupied at equilibrium, for simple one-to-one binding) in [1] was 510 nM. Same read-out and setting: under “C2C4 segment of cMyBP-C (from UniProt Q14896 362-633) (domain or fragment)” stands 380 nM. Consider “C0C2, cMyBP-C spanning domains C0 to C2 (from UniProt Q14896 1-452) (domain or fragment)”, for which the results for the Kd in experiment [2] and in [1] were 6.5 µM and 3400 nM, respectively. With “domain C1 of cMyBP-C (from UniProt Q14896 151-258) (domain or fragment)”, in experiment [1], the Kd was found to be 3800 nM. Take “C5C7-R943Q (from UniProt Q14896 1-1274) (domain or fragment)”: the values for the Kd in experiment [2] and in experiment [1] were 32.6 µM and 610 nM, respectively. “domain C2 of cMyBP-C (from UniProt Q14896 362-452) (domain or fragment)” had an equilibrium dissociation constant (Kd) in experiment [1] of 42300 nM. Consider “cMyBP-C (cardiac myosin-binding protein C) C0C2 (C0-P/A-C1-m-C2) (from UniProt Q14896) PKA tris-phosphorylated C0C2-3P, IEC purified”, for which the results for the KD result in [3], in [4] and in experiment [5] were “weaker; reference 3.4 ± 0.1”, “same; reference 3.4 ± 0.3” and “weaker; reference 2.7 ± 0.1”, respectively. Molecule “C0C1 fragment of cMyBP-C (from UniProt Q14896 1-258) (domain or fragment)” yielded a Kd in [1] of 3800 nM. Take “C5C7 segment of cMyBP-C (from UniProt Q14896 645-967) (domain or fragment)”: the EC50 (in general, the concentration that produces a half-maximal response) in [6] turned out to be 3.8 µM. In [1], this molecule came in with a Kd of 770 nM. For “myosin regulatory light chain (RLC) in miniHMM (from UniProt P10916) cMLCK-phosphorylated miniHMM”, the results for the KD entry in [7] and in experiment [8] were “same; reference 3.4 ± 0.1” and “stronger; reference 9.7 ± 0.5”, respectively.

As for “C5C7-R820Q (from UniProt Q14896 1-1274) (domain or fragment)”, the equilibrium dissociation constant (Kd) is 59.1 µM in experiment [2] and 1300 nM in experiment [1]. “domain C3 of cMyBP-C (from UniProt Q14896 453-543) (domain or fragment)”: the Kd in experiment [1] amounted to 25000 nM. The same measure, in the same setting: with “domain C0 of cMyBP-C (from UniProt Q14896 1-101) (domain or fragment)” the figure was 91300 nM.

As to “C5C7-N755K (from UniProt Q14896 1-1274) (domain or fragment)”, the Kd in experiment [2] is 73.9 µM; in experiment [1] it was 430 nM. Consider “domain C4 of cMyBP-C (from UniProt Q14896 544-633) (domain or fragment)”, for which the Kd in experiment [1] was found to be 2500 nM. Still for that read-out and setting: under “C0C2-3P, tris-phosphorylated C0C2 (from UniProt Q14896 1-452) (domain or fragment)” stands 2200 nM; under “full-length cardiac myosin-binding protein C (cMyBP-C) (from UniProt Q14896 1-1274) (natural protein)”, 300 nM. Consider B1, for which the Kd with C0C1 fragment of cMyBP-C was 199 µM; with C5C7 segment of cMyBP-C, 25.8 µM; in experiment [9], 600 nM.

B2: isolated m-motif of cMyBP-C (domain or fragment)
chain: HEAMGTGDLDLLSAFRRTSLAGGGRRISDSHEDTGILDFSSLLKKRDSFRTPRDSKLEAPAEEDVWEILRQAPPSEYERIAFQYGVTDLRGMLKRLKGMRRDEKK
modifications: here or on the partner: Unphosphorylated (bacterial expression). Limits taken as the interval between the annotated C1 (153-256) and C2 (362-452) domains. / Limits not printed. C-terminus from S2Δ as the first 126 residues o
Consider B2, for which the Kd in experiment [10] stood at 49.7 µM.

B3: isolated m-motif of cMyBP-C (domain or fragment)
chain: HEAMGTGDLDLLSAFRRTSLAGGGRRISDSHEDTGILDFSSLLKKRDSFRTPRDSKLEAPAEEDVWEILRQAPPSEYERIAFQYGVTDLRGMLKRLKGMRRDEKK
B3: the values for the Kd in experiment [11] and in experiment [12] were 183 µM and 41.4 µM, respectively.
